# Results taken from patent publication US20200131230A1 (published 2020).
# Like-named read-outs stand apart in the source and are kept apart here. Positions of bridges follow the written chain, without caps; N, C: chain ends. Non-standard residues stand in square brackets, D forms with d. 2Nal = N[C@@H](Cc1ccc2ccccc2c1)C(=O)O; Phg = N[C@H](C(=O)O)c1ccccc1; Tle = CC(C)(C)[C@H](N)C(=O)O; Nle = CCCC[C@H](N)C(=O)O; AMF = not defined here; DCF = not defined here; HF = not defined here
# B1: Compound 48 (peptide)
# peptide: {CH2CO}-[2Nal][Nle]SGRNWVKWVC-NH2
# modifications: thioether N-12
# SMILES: CCCC[C@@H]1NC(=O)[C@H](Cc2ccc3ccccc3c2)NC(=O)CSC[C@@H](C(N)=O)NC(=O)[C@H](C(C)C)NC(=O)[C@H](Cc2c[nH]c3ccccc23)NC(=O)[C@H](CCCCN)NC(=O)[C@H](C(C)C)NC(=O)[C@H](Cc2c[nH]c3ccccc23)NC(=O)[C@H](CC(N)=O)NC(=O)[C@H](CCCNC(=N)N)NC(=O)CNC(=O)[C@H](CO)NC1=O
# B2: Compound 39 (peptide)
# peptide: {CH2CO}-[2Nal]ISGRNW[Nle]KWFC-NH2
# modifications: thioether N-12
# SMILES: CCCC[C@@H]1NC(=O)[C@H](Cc2c[nH]c3ccccc23)NC(=O)[C@H](CC(N)=O)NC(=O)[C@H](CCCNC(=N)N)NC(=O)CNC(=O)[C@H](CO)NC(=O)[C@H]([C@@H](C)CC)NC(=O)[C@H](Cc2ccc3ccccc3c2)NC(=O)CSC[C@@H](C(N)=O)NC(=O)[C@H](Cc2ccccc2)NC(=O)[C@H](Cc2c[nH]c3ccccc23)NC(=O)[C@H](CCCCN)NC1=O
# B3: Compound 33 (peptide)
# peptide: {CH2CO}-[2Nal]WSGRNWVKWVC-NH2
# modifications: thioether N-12
# SMILES: CC(C)[C@@H]1NC(=O)[C@H](Cc2c[nH]c3ccccc23)NC(=O)[C@H](CCCCN)NC(=O)[C@H](C(C)C)NC(=O)[C@H](Cc2c[nH]c3ccccc23)NC(=O)[C@H](CC(N)=O)NC(=O)[C@H](CCCNC(=N)N)NC(=O)CNC(=O)[C@H](CO)NC(=O)[C@H](Cc2c[nH]c3ccccc23)NC(=O)[C@H](Cc2ccc3ccccc3c2)NC(=O)CSC[C@@H](C(N)=O)NC1=O
# B4: Compound 49 (peptide)
# peptide: {CH2CO}-[2Nal][Phg]SGRNWVKWVC-NH2
# modifications: thioether N-12
# SMILES: CC(C)[C@@H]1NC(=O)[C@H](Cc2c[nH]c3ccccc23)NC(=O)[C@H](CCCCN)NC(=O)[C@H](C(C)C)NC(=O)[C@H](Cc2c[nH]c3ccccc23)NC(=O)[C@H](CC(N)=O)NC(=O)[C@H](CCCNC(=N)N)NC(=O)CNC(=O)[C@H](CO)NC(=O)[C@H](c2ccccc2)NC(=O)[C@H](Cc2ccc3ccccc3c2)NC(=O)CSC[C@@H](C(N)=O)NC1=O
# B5: Compound 3 (peptide)
# peptide: {CH2CO}-FISGRNWVKWVC-NH2
# modifications: thioether N-12
# SMILES: CC[C@H](C)[C@@H]1NC(=O)[C@H](Cc2ccccc2)NC(=O)CSC[C@@H](C(N)=O)NC(=O)[C@H](C(C)C)NC(=O)[C@H](Cc2c[nH]c3ccccc23)NC(=O)[C@H](CCCCN)NC(=O)[C@H](C(C)C)NC(=O)[C@H](Cc2c[nH]c3ccccc23)NC(=O)[C@H](CC(N)=O)NC(=O)[C@H](CCCNC(=N)N)NC(=O)CNC(=O)[C@H](CO)NC1=O
# B6: Compound 4 (peptide)
# peptide: {CH2CO}-FISGRNWVRWVC-NH2
# modifications: thioether N-12
# SMILES: CC[C@H](C)[C@@H]1NC(=O)[C@H](Cc2ccccc2)NC(=O)CSC[C@@H](C(N)=O)NC(=O)[C@H](C(C)C)NC(=O)[C@H](Cc2c[nH]c3ccccc23)NC(=O)[C@H](CCCNC(=N)N)NC(=O)[C@H](C(C)C)NC(=O)[C@H](Cc2c[nH]c3ccccc23)NC(=O)[C@H](CC(N)=O)NC(=O)[C@H](CCCNC(=N)N)NC(=O)CNC(=O)[C@H](CO)NC1=O
# B7: Compound 1 (peptide)
# peptide: {CH2CO}-FISGRNWVVWVC-NH2
# modifications: thioether N-12
# SMILES: CC[C@H](C)[C@@H]1NC(=O)[C@H](Cc2ccccc2)NC(=O)CSC[C@@H](C(N)=O)NC(=O)[C@H](C(C)C)NC(=O)[C@H](Cc2c[nH]c3ccccc23)NC(=O)[C@H](C(C)C)NC(=O)[C@H](C(C)C)NC(=O)[C@H](Cc2c[nH]c3ccccc23)NC(=O)[C@H](CC(N)=O)NC(=O)[C@H](CCCNC(=N)N)NC(=O)CNC(=O)[C@H](CO)NC1=O
# B8: Compound 2 (peptide)
# peptide: {CH2CO}-FRSGRNWVVWVC-NH2
# modifications: thioether N-12
# SMILES: CC(C)[C@@H]1NC(=O)[C@H](Cc2c[nH]c3ccccc23)NC(=O)[C@H](C(C)C)NC(=O)[C@H](C(C)C)NC(=O)[C@H](Cc2c[nH]c3ccccc23)NC(=O)[C@H](CC(N)=O)NC(=O)[C@H](CCCNC(=N)N)NC(=O)CNC(=O)[C@H](CO)NC(=O)[C@H](CCCNC(=N)N)NC(=O)[C@H](Cc2ccccc2)NC(=O)CSC[C@@H](C(N)=O)NC1=O
# B9: Compound 50 (peptide)
# peptide: {CH2CO}-[2Nal][Tle]SGRNWVKWVC-NH2
# modifications: thioether N-12
# SMILES: CC(C)[C@@H]1NC(=O)[C@H](Cc2c[nH]c3ccccc23)NC(=O)[C@H](CCCCN)NC(=O)[C@H](C(C)C)NC(=O)[C@H](Cc2c[nH]c3ccccc23)NC(=O)[C@H](CC(N)=O)NC(=O)[C@H](CCCNC(=N)N)NC(=O)CNC(=O)[C@H](CO)NC(=O)[C@H](C(C)(C)C)NC(=O)[C@H](Cc2ccc3ccccc3c2)NC(=O)CSC[C@@H](C(N)=O)NC1=O
# B10: Compound 38 (peptide)
# peptide: {CH2CO}-[2Nal]ISGRNW[Nle]KWVC-NH2
# modifications: thioether N-12
# SMILES: CCCC[C@@H]1NC(=O)[C@H](Cc2c[nH]c3ccccc23)NC(=O)[C@H](CC(N)=O)NC(=O)[C@H](CCCNC(=N)N)NC(=O)CNC(=O)[C@H](CO)NC(=O)[C@H]([C@@H](C)CC)NC(=O)[C@H](Cc2ccc3ccccc3c2)NC(=O)CSC[C@@H](C(N)=O)NC(=O)[C@H](C(C)C)NC(=O)[C@H](Cc2c[nH]c3ccccc23)NC(=O)[C@H](CCCCN)NC1=O
# Assays:
# [1] = target: T1, Thrombospondin human platelet (Calbiochem, 605225) (human, UniProt P07996 19-1170); experiment: cell-based or functional assay
# Recombinant-hTSP1 = Recombinant-hTSP1 (human, UniProt P07996 19-1170, limits assumed); experiment: SPR (Biacore T200), single-cycle kinetics, recombinant hTSP1 immobilised on NTA chip
# Procedure: First, 500 μM NiCl₂ was injected over an NTA-Chip (produced by GE Healthcare, BR100532) at a flow rate of 5 μL/min. for 1 minute to thereby activate NTA groups. Then, an EDC/NHS mixture was injected at a flow rate of 10 μL/min. for 7 minutes to thereby activate the carboxyl groups of dextran. Recombinant-hTSP1 was injected at a flow rate of 10 μL/min. for 7 minutes to immobilize the TSP1 on the substrate surfaces with activated NTA and carboxyl groups. Ethanolamine was injected at a flow rate of 10 μL/min. for 7 minutes to thereby deactivate unreacted, activated carboxyl groups.
# Since Biacore T200 is highly responsive to change in DMSO concentrations, DMSO solutions were sequentially injected at concentrations of 4%, 4.4%, 4.8%, 5.2%, 5.6%, and 6% to correct for DMSO effects.
# The analysis was conducted using the evaluation software provided with Biacore T100 and T200. A DMSO correction curve obtained by solvent correction measurements was applied for the analysis. Kinetics fitting was done on the difference data obtained by subtracting the baseline data from sample measurement data.
# [2] = target: T1, Thrombospondin human platelet …; experiment: cell-based or functional assay; remark: listed apart in the source
# T1 sequence (P07996 19-1170 limits assumed): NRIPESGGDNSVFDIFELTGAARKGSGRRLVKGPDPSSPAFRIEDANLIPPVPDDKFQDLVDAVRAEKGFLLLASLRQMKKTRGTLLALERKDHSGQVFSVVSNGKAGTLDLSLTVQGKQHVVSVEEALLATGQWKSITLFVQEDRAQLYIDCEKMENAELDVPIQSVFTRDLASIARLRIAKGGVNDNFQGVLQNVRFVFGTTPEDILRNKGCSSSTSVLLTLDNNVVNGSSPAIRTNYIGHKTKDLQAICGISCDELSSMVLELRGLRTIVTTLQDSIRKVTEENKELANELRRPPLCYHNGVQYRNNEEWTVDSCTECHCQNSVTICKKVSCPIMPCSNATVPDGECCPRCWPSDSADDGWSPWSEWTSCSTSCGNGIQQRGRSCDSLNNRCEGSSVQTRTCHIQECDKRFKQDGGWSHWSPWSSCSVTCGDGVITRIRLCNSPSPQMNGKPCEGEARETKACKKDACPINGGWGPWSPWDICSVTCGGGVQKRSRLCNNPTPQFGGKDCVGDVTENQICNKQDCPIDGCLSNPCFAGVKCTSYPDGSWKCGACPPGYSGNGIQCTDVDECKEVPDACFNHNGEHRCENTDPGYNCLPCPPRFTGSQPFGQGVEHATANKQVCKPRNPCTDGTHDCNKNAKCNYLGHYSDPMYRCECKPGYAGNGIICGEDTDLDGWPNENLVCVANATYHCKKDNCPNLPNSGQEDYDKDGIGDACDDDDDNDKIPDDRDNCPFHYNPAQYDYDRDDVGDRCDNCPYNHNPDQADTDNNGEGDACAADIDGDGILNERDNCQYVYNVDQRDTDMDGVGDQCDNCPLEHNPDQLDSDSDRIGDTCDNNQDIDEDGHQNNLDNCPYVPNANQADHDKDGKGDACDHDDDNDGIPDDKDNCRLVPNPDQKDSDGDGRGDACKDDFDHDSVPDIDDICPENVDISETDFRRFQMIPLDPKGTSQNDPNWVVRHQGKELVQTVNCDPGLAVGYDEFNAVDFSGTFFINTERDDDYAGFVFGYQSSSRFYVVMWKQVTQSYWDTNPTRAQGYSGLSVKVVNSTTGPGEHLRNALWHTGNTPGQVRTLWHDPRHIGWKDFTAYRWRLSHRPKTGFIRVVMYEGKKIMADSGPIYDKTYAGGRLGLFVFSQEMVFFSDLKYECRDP
# Sequence of Recombinant-hTSP1 (P07996 19-1170 limits assumed): as above
binder,measurement,setting,value
{CH2CO}-[2Nal][HF]SGRNWVKWVC-NH2 (thioether N-12; reading uncertain) [Compound 32],Cell adhesion IC50,[1],0.0259 µM
B1,Cell adhesion IC50,[1],0.0104 µM
{CH2CO}-[2Nal]ISGRN[6CW]VKWVC-NH2 (thioether N-12) [Compound 35],Cell adhesion IC50,[1],0.026 µM
{CH2CO}-FISGRNWV[AMF]WVC-NH2 (thioether N-12; reading uncertain) [Compound 47],Cell adhesion IC50,[1],0.0167 µM
B2,Cell adhesion IC50,[1],0.0163 µM
B3,Cell adhesion IC50,[1],0.0207 µM
B4,Cell adhesion IC50,[1],0.0115 µM
{CH2CO}-FISGRNWV[3MH]WVC-NH2 (thioether N-12) [Compound 46],Cell adhesion IC50,[1],0.0303 µM
{CH2CO}-[2Nal]ISGRNWVK[6CW]VC-NH2 (thioether N-12) [Compound 36],Cell adhesion IC50,[1],0.0172 µM
{CH2CO}-[2Nal]ISGRNWVKW[HF]C-NH2 (thioether N-12; reading uncertain) [Compound 37],Cell adhesion IC50,[1],0.0196 µM
B5,Kd,Recombinant-hTSP1,0.00025 µM
same,Cell adhesion IC50,[2],0.0208 µM
B6,Kd,Recombinant-hTSP1,0.00026 µM
same,Cell adhesion IC50,[2],0.0112 µM
B7,Kd,Recombinant-hTSP1,0.00051 µM
same,Cell adhesion IC50,[2],0.0349 µM
B8,Kd,Recombinant-hTSP1,0.00015 µM
same,Cell adhesion IC50,[2],0.0255 µM
{CH2CO}-[DCF][2Nal]SGRNWVKWVC-NH2 (thioether N-12; reading uncertain) [Compound 34],Cell adhesion IC50,[1],0.0281 µM
B9,Cell adhesion IC50,[1],0.0116 µM
B10,Cell adhesion IC50,[1],0.0092 µM
